Where two headings read alike, the source gives them in different places. Starred links: 1 amine or outer side, 2 acyl side, 3 side chain; linkers in the order of their positions; H or OH if unused. Non-standard residues stand in square brackets, D forms with d. Groups on a side chain read outwards from the residue. No end group written: not given here. *: point of attachment. C20 diacid = O=C(O)CCCCCCCCCCCCCCCCCCC(=O)*; γGlu = O=C(O)[C@H](CCC(=O)[*:2])N[*:1]; αMeL = CC(C)C[C@](C)(N)C(=O)O; αMeK = C[C@](N)(CCCCN)C(=O)O; AEEA = NCCOCCOCC(=O)O; Aib = CC(C)(N)C(=O)O
How the values were obtained:
Test in all cases: cell-based or functional assay
human glucagon receptor [1] = molecular target: T1, human glucagon receptor (human, UniProt P47871 26-477)
T1 sequence (P47871 26-477): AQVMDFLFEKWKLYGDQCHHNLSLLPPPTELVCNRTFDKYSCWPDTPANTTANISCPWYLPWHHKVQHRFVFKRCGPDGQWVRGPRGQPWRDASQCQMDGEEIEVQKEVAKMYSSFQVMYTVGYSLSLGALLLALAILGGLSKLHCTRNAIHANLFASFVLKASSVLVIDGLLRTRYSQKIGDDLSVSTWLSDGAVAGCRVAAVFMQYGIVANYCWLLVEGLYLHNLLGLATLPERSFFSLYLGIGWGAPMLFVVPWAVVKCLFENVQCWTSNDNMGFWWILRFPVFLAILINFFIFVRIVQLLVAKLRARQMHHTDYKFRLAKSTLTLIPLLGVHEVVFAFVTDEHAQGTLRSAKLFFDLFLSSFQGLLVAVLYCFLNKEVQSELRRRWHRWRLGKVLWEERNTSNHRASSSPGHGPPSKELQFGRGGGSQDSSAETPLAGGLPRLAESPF

[2] = molecular target: T2, human glucose-dependent insulinotropic polypeptide receptor (human, UniProt P48546 22-466)
T2 sequence (looked up): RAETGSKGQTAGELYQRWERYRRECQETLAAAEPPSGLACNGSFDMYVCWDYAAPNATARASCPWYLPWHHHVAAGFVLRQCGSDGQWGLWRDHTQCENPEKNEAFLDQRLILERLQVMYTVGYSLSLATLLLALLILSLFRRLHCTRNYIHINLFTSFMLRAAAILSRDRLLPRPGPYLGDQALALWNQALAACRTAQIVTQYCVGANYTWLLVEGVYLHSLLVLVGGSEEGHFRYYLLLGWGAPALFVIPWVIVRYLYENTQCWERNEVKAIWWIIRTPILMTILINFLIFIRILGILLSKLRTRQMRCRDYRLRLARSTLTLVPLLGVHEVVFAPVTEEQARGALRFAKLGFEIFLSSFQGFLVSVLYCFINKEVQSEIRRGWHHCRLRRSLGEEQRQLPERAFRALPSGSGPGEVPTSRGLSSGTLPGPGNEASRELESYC

[3] = molecular target: T3, human glucagon-like peptide-1 receptor (human, UniProt P43220 24-463)
human glucagon receptor [4] = molecular target: T1, human glucagon receptor; remark: listed apart in the source
[5] = molecular target: T2, human glucose-dependent insulinotropic …; remark: listed apart in the source
[6] = molecular target: T3, human glucagon-like peptide-1 receptor; remark: listed apart in the source

B1: Compound No. 0112 (peptide)
peptide: H[Aib]HGTFTSDYS[αMeK]LLEK([AEEA-AEEA-γGlu-C20 diacid])KAAQEFVEWLLAGGPSSGAPPPS-NH2
modifications: N-terminus assumed
SMILES: CC(C)C[C@H](NC(=O)[C@H](CC(C)C)NC(=O)[C@H](Cc1c[nH]c2ccccc12)NC(=O)[C@H](CCC(=O)O)NC(=O)[C@@H](NC(=O)[C@H](Cc1ccccc1)NC(=O)[C@H](CCC(=O)O)NC(=O)[C@H](CCC(N)=O)NC(=O)[C@H](C)NC(=O)[C@H](C)NC(=O)[C@H](CCCCN)NC(=O)[C@H](CCCCNC(=O)COCCOCCNC(=O)COCCOCCNC(=O)CC[C@H](NC(=O)CCCCCCCCCCCCCCCCCCC(=O)O)C(=O)O)NC(=O)[C@H](CCC(=O)O)NC(=O)[C@H](CC(C)C)NC(=O)[C@H](CC(C)C)NC(=O)[C@](C)(CCCCN)NC(=O)[C@H](CO)NC(=O)[C@H](Cc1ccc(O)cc1)NC(=O)[C@H](CC(=O)O)NC(=O)[C@H](CO)NC(=O)[C@@H](NC(=O)[C@H](Cc1ccccc1)NC(=O)[C@@H](NC(=O)CNC(=O)[C@H](Cc1c[nH]cn1)NC(=O)C(C)(C)NC(=O)[C@@H](N)Cc1c[nH]cn1)[C@@H](C)O)[C@@H](C)O)C(C)C)C(=O)N[C@@H](C)C(=O)NCC(=O)NCC(=O)N1CCC[C@H]1C(=O)N[C@@H](CO)C(=O)N[C@@H](CO)C(=O)NCC(=O)N[C@@H](C)C(=O)N1CCC[C@H]1C(=O)N1CCC[C@H]1C(=O)N1CCC[C@H]1C(=O)N[C@@H](CO)C(N)=O
Activity against human GCGR (EC50 nM) (human glucagon receptor [1]): 0.087 nM | Activity against human GIPR (EC50 nM) [2]: 0.005 nM | Activity against human GLP-1R (EC50 nM) [3]: 0.031 nM

B2: Compound No. 0155 (peptide)
peptide: H[Aib]QGTFTSDYSI[αMeL]LEK([AEEA-AEEA-γGlu-C20 diacid])KAAQEFVEWLLAGGPSSGAPPPS-NH2
modifications: N-terminus assumed
SMILES: CC[C@H](C)[C@H](NC(=O)[C@H](CO)NC(=O)[C@H](Cc1ccc(O)cc1)NC(=O)[C@H](CC(=O)O)NC(=O)[C@H](CO)NC(=O)[C@@H](NC(=O)[C@H](Cc1ccccc1)NC(=O)[C@@H](NC(=O)CNC(=O)[C@H](CCC(N)=O)NC(=O)C(C)(C)NC(=O)[C@@H](N)Cc1c[nH]cn1)[C@@H](C)O)[C@@H](C)O)C(=O)N[C@@](C)(CC(C)C)C(=O)N[C@@H](CC(C)C)C(=O)N[C@@H](CCC(=O)O)C(=O)N[C@@H](CCCCNC(=O)COCCOCCNC(=O)COCCOCCNC(=O)CC[C@H](NC(=O)CCCCCCCCCCCCCCCCCCC(=O)O)C(=O)O)C(=O)N[C@@H](CCCCN)C(=O)N[C@@H](C)C(=O)N[C@@H](C)C(=O)N[C@@H](CCC(N)=O)C(=O)N[C@@H](CCC(=O)O)C(=O)N[C@@H](Cc1ccccc1)C(=O)N[C@H](C(=O)N[C@@H](CCC(=O)O)C(=O)N[C@@H](Cc1c[nH]c2ccccc12)C(=O)N[C@@H](CC(C)C)C(=O)N[C@@H](CC(C)C)C(=O)N[C@@H](C)C(=O)NCC(=O)NCC(=O)N1CCC[C@H]1C(=O)N[C@@H](CO)C(=O)N[C@@H](CO)C(=O)NCC(=O)N[C@@H](C)C(=O)N1CCC[C@H]1C(=O)N1CCC[C@H]1C(=O)N1CCC[C@H]1C(=O)N[C@@H](CO)C(N)=O)C(C)C
Activity against human GCGR (EC50 nM) (human glucagon receptor [4]): 3.65 nM | Activity against human GIPR (EC50 nM) [5]: 0.014 nM | Activity against human GLP-1R (EC50 nM) [6]: 0.036 nM

B3: Compound No. 0119 (peptide)
peptide: H[Aib]HGTFTSDYS[αMeK]ILEK([AEEA-AEEA-γGlu-C20 diacid])KAAQEFVEWLLAGGPSSGAPPPS-NH2
modifications: N-terminus assumed
SMILES: CC[C@H](C)[C@H](NC(=O)[C@](C)(CCCCN)NC(=O)[C@H](CO)NC(=O)[C@H](Cc1ccc(O)cc1)NC(=O)[C@H](CC(=O)O)NC(=O)[C@H](CO)NC(=O)[C@@H](NC(=O)[C@H](Cc1ccccc1)NC(=O)[C@@H](NC(=O)CNC(=O)[C@H](Cc1c[nH]cn1)NC(=O)C(C)(C)NC(=O)[C@@H](N)Cc1c[nH]cn1)[C@@H](C)O)[C@@H](C)O)C(=O)N[C@@H](CC(C)C)C(=O)N[C@@H](CCC(=O)O)C(=O)N[C@@H](CCCCNC(=O)COCCOCCNC(=O)COCCOCCNC(=O)CC[C@H](NC(=O)CCCCCCCCCCCCCCCCCCC(=O)O)C(=O)O)C(=O)N[C@@H](CCCCN)C(=O)N[C@@H](C)C(=O)N[C@@H](C)C(=O)N[C@@H](CCC(N)=O)C(=O)N[C@@H](CCC(=O)O)C(=O)N[C@@H](Cc1ccccc1)C(=O)N[C@H](C(=O)N[C@@H](CCC(=O)O)C(=O)N[C@@H](Cc1c[nH]c2ccccc12)C(=O)N[C@@H](CC(C)C)C(=O)N[C@@H](CC(C)C)C(=O)N[C@@H](C)C(=O)NCC(=O)NCC(=O)N1CCC[C@H]1C(=O)N[C@@H](CO)C(=O)N[C@@H](CO)C(=O)NCC(=O)N[C@@H](C)C(=O)N1CCC[C@H]1C(=O)N1CCC[C@H]1C(=O)N1CCC[C@H]1C(=O)N[C@@H](CO)C(N)=O)C(C)C
Activity against human GCGR (EC50 nM) (human glucagon receptor [1]): 0.087 nM | Activity against human GIPR (EC50 nM) [2]: 0.005 nM | Activity against human GLP-1R (EC50 nM) [3]: 0.023 nM

B4: Compound No. 0154 (peptide)
peptide: H[Aib]QGTFTSDYSILLEK([AEEA-AEEA-γGlu-C20 diacid])KAAQEFVEWLLAGGPSSGAPPPS-NH2
modifications: N-terminus assumed
SMILES: CC[C@H](C)[C@H](NC(=O)[C@H](CO)NC(=O)[C@H](Cc1ccc(O)cc1)NC(=O)[C@H](CC(=O)O)NC(=O)[C@H](CO)NC(=O)[C@@H](NC(=O)[C@H](Cc1ccccc1)NC(=O)[C@@H](NC(=O)CNC(=O)[C@H](CCC(N)=O)NC(=O)C(C)(C)NC(=O)[C@@H](N)Cc1c[nH]cn1)[C@@H](C)O)[C@@H](C)O)C(=O)N[C@@H](CC(C)C)C(=O)N[C@@H](CC(C)C)C(=O)N[C@@H](CCC(=O)O)C(=O)N[C@@H](CCCCNC(=O)COCCOCCNC(=O)COCCOCCNC(=O)CC[C@H](NC(=O)CCCCCCCCCCCCCCCCCCC(=O)O)C(=O)O)C(=O)N[C@@H](CCCCN)C(=O)N[C@@H](C)C(=O)N[C@@H](C)C(=O)N[C@@H](CCC(N)=O)C(=O)N[C@@H](CCC(=O)O)C(=O)N[C@@H](Cc1ccccc1)C(=O)N[C@H](C(=O)N[C@@H](CCC(=O)O)C(=O)N[C@@H](Cc1c[nH]c2ccccc12)C(=O)N[C@@H](CC(C)C)C(=O)N[C@@H](CC(C)C)C(=O)N[C@@H](C)C(=O)NCC(=O)NCC(=O)N1CCC[C@H]1C(=O)N[C@@H](CO)C(=O)N[C@@H](CO)C(=O)NCC(=O)N[C@@H](C)C(=O)N1CCC[C@H]1C(=O)N1CCC[C@H]1C(=O)N1CCC[C@H]1C(=O)N[C@@H](CO)C(N)=O)C(C)C
Activity against human GCGR (EC50 nM) (human glucagon receptor [4]): 1.62 nM | Activity against human GIPR (EC50 nM) [5]: 0.031 nM | Activity against human GLP-1R (EC50 nM) [6]: 0.033 nM

B5: Compound No. 0153 (peptide)
peptide: H[Aib]HGTFTSDYSILLEK([AEEA-AEEA-γGlu-C20 diacid])QAAQEFVEWLLA[dE]GPSSGAPPPS-NH2
modifications: N-terminus assumed
SMILES: CC[C@H](C)[C@H](NC(=O)[C@H](CO)NC(=O)[C@H](Cc1ccc(O)cc1)NC(=O)[C@H](CC(=O)O)NC(=O)[C@H](CO)NC(=O)[C@@H](NC(=O)[C@H](Cc1ccccc1)NC(=O)[C@@H](NC(=O)CNC(=O)[C@H](Cc1c[nH]cn1)NC(=O)C(C)(C)NC(=O)[C@@H](N)Cc1c[nH]cn1)[C@@H](C)O)[C@@H](C)O)C(=O)N[C@@H](CC(C)C)C(=O)N[C@@H](CC(C)C)C(=O)N[C@@H](CCC(=O)O)C(=O)N[C@@H](CCCCNC(=O)COCCOCCNC(=O)COCCOCCNC(=O)CC[C@H](NC(=O)CCCCCCCCCCCCCCCCCCC(=O)O)C(=O)O)C(=O)N[C@@H](CCC(N)=O)C(=O)N[C@@H](C)C(=O)N[C@@H](C)C(=O)N[C@@H](CCC(N)=O)C(=O)N[C@@H](CCC(=O)O)C(=O)N[C@@H](Cc1ccccc1)C(=O)N[C@H](C(=O)N[C@@H](CCC(=O)O)C(=O)N[C@@H](Cc1c[nH]c2ccccc12)C(=O)N[C@@H](CC(C)C)C(=O)N[C@@H](CC(C)C)C(=O)N[C@@H](C)C(=O)N[C@H](CCC(=O)O)C(=O)NCC(=O)N1CCC[C@H]1C(=O)N[C@@H](CO)C(=O)N[C@@H](CO)C(=O)NCC(=O)N[C@@H](C)C(=O)N1CCC[C@H]1C(=O)N1CCC[C@H]1C(=O)N1CCC[C@H]1C(=O)N[C@@H](CO)C(N)=O)C(C)C
Activity against human GCGR (EC50 nM) (human glucagon receptor [4]): 0.334 nM | Activity against human GIPR (EC50 nM) [5]: 0.01 nM | Activity against human GLP-1R (EC50 nM) [6]: 0.051 nM

H[Aib]HGTFTSDYS[αMeK]YLEK([AEEA-AEEA-γGlu-C20 diacid])KAAQEFVEWLIEGGPSSGAPPPS-NH2 [Compound No. 0115]
Activity against human GCGR (EC50 nM) (human glucagon receptor [1]): 0.425 nM | Activity against human GIPR (EC50 nM) [2]: 0.051 nM | Activity against human GLP-1R (EC50 nM) [3]: 0.023 nM

— patent publication EP4745153A1, “GLP-1, GIP AND GCG RECEPTOR […] USE THEREOF” (Jiangsu Hengrui Pharmaceuticals Co., Ltd., priority 2023, dated 2025)
